In patent US8470772B2, “Leptin agonist and methods of use” (Temple University—Of The Commonwealth System of Higher …, priority 2008, dated 2013):
Non-standard residues stand in square brackets, D forms with d. No end group written: not given here. *: point of attachment. βGlc = OC[C@H]1O[C@@H](*)[C@H](O)[C@@H](O)[C@@H]1O; Tyr(3,5-I2) = N[C@@H](Cc1cc(I)c(O)c(I)c1)C(=O)O; Dap = NC[C@H](N)C(=O)O

Experiments:
[1] = target: T1, ObR extracellular domain (Homo sapiens, UniProt P48357); assay: Dot-blot and ELISA-type solid-phase binding assay; conditions: dot-blot, Western-blot or ELISA; 10 and 20 μg peptide load in ELISA
T1 construct: human IgG Fc-conjugated ObR extracellular domain (R&D Systems); purchased R&D Systems
T1 sequence (P48357 22-839 limits assumed): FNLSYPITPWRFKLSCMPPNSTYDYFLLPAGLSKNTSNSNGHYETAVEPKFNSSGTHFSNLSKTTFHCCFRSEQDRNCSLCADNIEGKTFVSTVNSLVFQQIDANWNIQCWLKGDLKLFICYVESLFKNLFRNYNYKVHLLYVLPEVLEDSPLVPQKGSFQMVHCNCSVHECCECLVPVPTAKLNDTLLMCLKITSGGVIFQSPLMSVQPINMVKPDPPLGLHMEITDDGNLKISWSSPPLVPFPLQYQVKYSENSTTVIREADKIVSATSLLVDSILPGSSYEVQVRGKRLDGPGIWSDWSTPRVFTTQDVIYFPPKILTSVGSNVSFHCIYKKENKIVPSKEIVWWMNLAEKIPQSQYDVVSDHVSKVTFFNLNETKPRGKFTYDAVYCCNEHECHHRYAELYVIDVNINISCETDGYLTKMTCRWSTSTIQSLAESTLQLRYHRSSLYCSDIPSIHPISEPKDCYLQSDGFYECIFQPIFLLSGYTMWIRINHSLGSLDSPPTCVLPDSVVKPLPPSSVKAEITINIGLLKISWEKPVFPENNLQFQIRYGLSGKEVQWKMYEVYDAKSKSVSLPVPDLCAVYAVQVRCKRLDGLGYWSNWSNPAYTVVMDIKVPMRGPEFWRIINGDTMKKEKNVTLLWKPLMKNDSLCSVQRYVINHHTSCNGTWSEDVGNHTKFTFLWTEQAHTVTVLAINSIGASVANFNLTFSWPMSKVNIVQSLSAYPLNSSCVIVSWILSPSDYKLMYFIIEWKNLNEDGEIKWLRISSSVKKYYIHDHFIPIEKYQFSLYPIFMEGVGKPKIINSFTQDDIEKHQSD
Description: For dot-blot and ELISA assays, the leptin fragments were dissolved in electroblot transfer buffer (25 mM Tris and […] buffer containing 20% methanol) and were applied to either a nitrocellulose membrane or dried upon ELISA plates (Otvos, L., Jr., and Szendrei, G. I. (1996) Enzyme-linked immunosorbent assay of peptides. In: Neuropeptide Protocols (G. B. Irvine and C. H. Williams, eds.). Humana Press, Totowa, N.J., pp. 269-275). The solid surfaces were blocked with 5% BSA in a PBS-0.5% Tween 20 buffer (PBST) for 3 hours at room temperature and were subsequently incubated with 10 μg/mL solution of human IgG Fc-conjugated ObR extracellular domain (R&D Systems) dissolved in Tris-buffered saline-0.1% Tween 20 buffer (TBST) containing 1% bovine serum albumin (BSA) for 1 hour. A monoclonal goat antibody (Santa Cruz Biotechnology), specific for the N-terminus of human ObR, was added to the assay mixture, followed by addition of a horseradish peroxidase(HRP)-conjugated anti-goat IgG donkey antibody for the dot-blot assay, and HRP-conjugated anti-goat Fc mouse antibody for ELISA assay (used at a 1:15,000 dilution in PBST and 1% BSA). Between reagents, the solid surfaces were washed extensively with PBST. After washing with PBST, the membrane was treated with a chemiluminescence luminol oxidizer (NEN) for 1 min. The resultant chemiluminescence was exposed to a X-Omat blue XB-1 film (Kodak) for 10 seconds, and the exposed film was developed. The ELISA was developed using an HRP ELISA kit including tetramethylbenzidine as a substrate and sulfuric acid as a stop solution. Optical absorbance values were read at 490 nm using a microplate reader.

[2] = system: ERK1/2; assay: ObR signaling assay: ERK1/2 phosphorylation in MCF-7 cells by Western blotting; format: cell-based, human
Description: MCF-7 cells were grown and treated with E1Free peptide and full-sized leptin as described for the cell stimulation assays elsewhere herein. Cells were lysed with SDS sample buffer and scraped off of the plate. DNA was sheared using sonication, after which the sample was heated to 95° C., centrifuged and, subjected to SDS-PAGE. After gel electrophoresis, the proteins were transferred to nitrocellulose membrane. The membrane was incubated with 5% milk as blocking buffer, followed by addition of rabbit polyclonal antibodies to phosphorylated or total ERK1/2 MAP kinases (1:500 dilution in TBST and 2% milk, Cell Signaling Technology). The expression of a constitutive Hsp72/74 protein was probed with mouse monoclonal antibodies to control protein loading (1:5,000 dilution in TBST and 3% milk Calbiochem). After extensive washing, the blots incubated with HRP-conjugated secondary anti-rabbit (1:1,000 in TBST and 2% milk, Santa Cruz Biotechnology) and anti-mouse (1:10,000 TBST and 3% milk, Amersham Biosciences) IgG antibodies produced in goats, and developed as described for the dot-blot above.

[3] = In vivo biodistribution of DY675-labeled peptide by fluorescence imaging; conditions: intraperitoneal, female Balb/c mice, up to 65 minutes
Description: E1Free peptide was co-synthesized with the near-infrared absorbing fluorescent dye DY675 and the resultant labeled peptide was purified by RP-HPLC. Forty microgams of the peptide was injected intraperiotoneally into shaved and isoflurane anesthesized female Balb/c mice. For imaging of the biodistribution of the peptide, the animals were placed into a fluorescence microscope chamber under continuous isoflurane exposure. Fluorescence exposure pictures were taken with an IVIS microscope set to a 695 nm emission wavelength. Images were obtained once a minute for the first ten minutes after peptide addition and every five minutes afterwards, until a 65 minute stop point was reached.

In the case of “Tyr(I2)-Serβ(Glc)-Thr-Glu-Va1-Va1-Ala-Leu-Ser-Arg-Leu-Dap(Ac) ([Tyr(3,5-I2)]S(βGlc)TEVVALSRL[Dap](Ac)-NH2) [E1Free]”, the “binding to the extracellular domain of ObR” value [1] was “bound”, the “peptide concentration of maximum observed ERK1/2 stimulation” value [2] was 200 nM and the “phosphorylation of ERK1/2” value ([2]; total ERK1/2 steady) was “increased”. For the same substance, the biodistribution [3] was “localizes in the head, as well as the kidneys and liver”.
